Assay results taken from patent US20190241655A1.

Key:
[1] = molecular target: human PI16 (Peptidase inhibitor 16) expressed on the cell surface (human) (UniProt Q6UXB8); test: flow cytometry, ILT3Fc cross-linked with anti-human Fc antibody on PI16-transfected 3A9 cells
[2] = molecular target: human PI16 (Peptidase inhibitor 16) expressed on the cell surface (human) (UniProt Q6UXB8); test: flow cytometry, ILT3Fc on PI16-transfected 3A9 cells
[3] = molecular target: ILT3-CD3z fusion protein on reporter cells (human); test: cell-based or functional assay
Chain of ILT3-CD3z fusion protein on reporter cells (human) (Q8NHJ6 22-259): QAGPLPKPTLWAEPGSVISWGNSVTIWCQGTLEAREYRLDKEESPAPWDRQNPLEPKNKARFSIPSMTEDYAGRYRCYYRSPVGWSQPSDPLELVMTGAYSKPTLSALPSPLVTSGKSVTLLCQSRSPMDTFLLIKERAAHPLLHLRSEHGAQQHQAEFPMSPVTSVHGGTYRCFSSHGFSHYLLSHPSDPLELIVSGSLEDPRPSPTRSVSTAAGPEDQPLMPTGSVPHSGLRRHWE

| percent of cells stained [1] [%] | percent of cells stained [2] [%] | luciferase activity of ILT3 reporter cells [3] [log] | Substance |
| --- | --- | --- | --- |
| 23 | 8.3 |  | ILT3Fc (Fc fusion) |
|  |  | 2 | human PI16 (Peptidase inhibitor 16) expressed on the cell surface (from UniProt Q6UXB8 28-463) (ligand) |
